# Data reported in US20140030731.
# Legend:
# [1] = target: constitutively active GFP-RhoAV14, P61586
# [2] = target: GFP-RhoAV14E40L (constitutively active mutant of RhoA defective in its interaction with ROCK), P61586
# GFP-RhoAV14E40L (constitutively active mutant of RhoA defective in its interaction with ROCK), P61586, sequence (P61586 other isoform, or with tags, fused parts or gaps mutant): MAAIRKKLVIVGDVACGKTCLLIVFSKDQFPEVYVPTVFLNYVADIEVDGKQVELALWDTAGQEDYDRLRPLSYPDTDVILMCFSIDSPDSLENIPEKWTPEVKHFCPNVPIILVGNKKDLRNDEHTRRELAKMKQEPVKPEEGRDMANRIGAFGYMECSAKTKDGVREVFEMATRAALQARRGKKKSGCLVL
# constitutively active GFP-RhoAV14, P61586, sequence (P61586 other isoform, or with tags, fused parts or gaps): as the sequence (P61586 other isoform, or with tags, fused parts or gaps mutant) above, with L40E counted along it
Protein,"level of ROCKI Ser^1333 phosphorylation (Western blotting with antibody-I, HEK-293T extracts) [1]","level of ROCKII Ser^1366 phosphorylation (Western blotting with antibody-II, HEK-293T extracts) [2]","level of ROCK Ser^1366 phosphorylation (Western blotting with antibody-II, HEK-293T extracts) [1]"
"endogenous human ROCKI, Ser^1333 phosphorylated (HEK-293T cell extracts) (protein) STGDSFETRFEKMDNLLRDPKSEVNSDCLLDGLDALVYDLDFPALRKNKNIDNFLSRYKDTINKIRDLRMKAEDYEVVKVIGRGAFGEVQLVRHKSTRKVYAMKLLSKFEMIKRSDSAFFWEERDIMAFANSPWVVQLFYAFQDDRYLYMVMEYMPGGDLVNLMSNYDVPEKWARFYTAEVVLALDAIHSMGFIHRDVKPDNMLLDKSGHLKLADFGTCMKMNKEGMVRCDTAVGTPDYISPEVLKSQGGDGYYGRECDWWSVGVFLYEMLVGDTPFYADSLVGTYSKIMNHKNSLTFPDDNDISKEAKNLICAFLTDREVRLGRNGVEEIKRHLFFKNDQWAWETLRDTVAPVVPDLSSDIDTSNFDDLEEDKGEEETFPIPKAFVGNQLPFVGFTYYSNRRYLSSANPNDNRTSSNADKSLQESLQKTIYKLEEQLHNEMQLKDEMEQKCRTSNIKLDKIMKELDEEGNQRRNLESTVSQIEKEKMLLQHRINEYQRKAEQENEKRRNVENEVSTLKDQLEDLKKVSQNSQLANEKLSQLQKQLEEANDLLRTESDTAVRLRKSHTEMSKSISQLESLNRELQERNRILENSKSQTDKDYYQLQAILEAERRDRGHDSEMIGDLQARITSLQEEVKHLKHNLEKVEGERKEAQDMLNHSEKEKNNLEIDLNYKLKSLQQRLEQEVNEHKVTKARLTDKHQSIEEAKSVAMCEMEKKLKEEREAREKAENRVVQIEKQCSMLDVDLKQSQQKLEHLTGNKERMEDEVKNLTLQLEQESNKRLLLQNELKTQAFEADNLKGLEKQMKQEINTLLEAKRLLEFELAQLTKQYRGNEGQMRELQDQLEAEQYFSTLYKTQVKELKEEIEEKNRENLKKIQELQNEKETLATQLDLAETKAESEQLARGLLEEQYFELTQESKKAASRNRQEITDKDHTVSRLEEANSMLTKDIEILRRENEELTEKMKKAEEEYKLEKEEEISNLKAAFEKNINTERTLKTQAVNKLAEIMNRKDFKIDRKKANTQDLRKKEKENRKLQLELNQEREKFNQMVVKHQKELNDMQAQLVEECAHRNELQMQLASKESDIEQLRAKLLDLSDSTSVASFPSADETDGNLPESRIEGWLSVPNRGNIKRYGWKKQYVVVSSKKILFYNDEQDKEQSNPSMVLDIDKLFHVRPVTQGDVYRAETEEIPKIFQILYANEGECRKDVEMEPVQQAEKTNFQNHKGHEFIPTLYHFPANCDACAKPLWHVFKPPPALECRRCHVKCHRDHLDKKEDLICPCKVSYDVTSARDMLLLACSQDEQKKWVTHLVKKIPKNPPSGFVRASPRTLSTRSTANQSFRKVVKNTSGKTS",the changes on the level of ROCKI Ser^1333 phosphorylaion also indeed enhanced due to RhoA activation,–,–
"endogenous human ROCKII, Ser^1366 phosphorylated (HEK-293T cell extracts; human breast tumor tissue) (protein) MSRPPPTGKMPGAPETAPGDGAGASRQRKLEALIRDPRSPINVESLLDGLNSLVLDLDFPALRKNKNIDNFLNRYEKIVKKIRGLQMKAEDYDVVKVIGRGAFGEVQLVRHKASQKVYAMKLLSKFEMIKRSDSAFFWEERDIMAFANSPWVVQLFYAFQDDRYLYMVMEYMPGGDLVNLMSNYDVPEKWAKFYTAEVVLALDAIHSMGLIHRDVKPDNMLLDKHGHLKLADFGTCMKMDETGMVHCDTAVGTPDYISPEVLKSQGGDGFYGRECDWWSVGVFLYEMLVGDTPFYADSLVGTYSKIMDHKNSLCFPEDAEISKHAKNLICAFLTDREVRLGRNGVEEIRQHPFFKNDQWHWDNIRETAAPVVPELSSDIDSSNFDDIEDDKGDVETFPIPKAFVGNQLPFIGFTYYRENLLLSDSPSCRETDSIQSRKNEESQEIQKKLYTLEEHLSNEMQAKEELEQKCKSVNTRLEKTAKELEEEITLRKSVESALRQLEREKALLQHKNAEYQRKADHEADKKRNLENDVNSLKDQLEDLKKRNQNSQISTEKVNQLQRQLDETNALLRTESDTAARLRKTQAESSKQIQQLESNNRDLQDKNCLLETAKLKLEKEFINLQSALESERRDRTHGSEIINDLQGRICGLEEDLKNGKILLAKVELEKRQLQERFTDLEKEKSNMEIDMTYQLKVIQQSLEQEEAEHKATKARLADKNKIYESIEEAKSEAMKEMEKKLLEERTLKQKVENLLLEAEKRCSLLDCDLKQSQQKINELLKQKDVLNEDVRNLTLKIEQETQKRCLTQNDLKMQTQQVNTLKMSEKQLKQENNHLMEMKMNLEKQNAELRKERQDADGQMKELQDQLEAEQYFSTLYKTQVRELKEECEEKTKLGKELQQKKQELQDERDSLAAQLEITLTKADSEQLARSIAEEQYSDLEKEKIMKELEIKEMMARHKQELTEKDATIASLEETNRTLTSDVANLANEKEELNNKLKDVQEQLSRLKDEEISAAAIKAQFEKQLLTERTLKTQAVNKLAEIMNRKEPVKRGNDTDVRRKEKENRKLHMELKSEREKLTQQMIKYQKELNEMQAQIAEESQIRIELQMTLDSKDSDIEQLRSQLQALHIGLDSSSIGSGPGDAEADDGFPESRLEGWLSLPVRNNTKKFGWVKKYVIVSSKKILFYDSEQDKEQSNPYMVLDIDKLFHVRPVTQTDVYRADAKEIPRIFQILYANEGESKKEQEFPVEPVGEKSNYICHKGHEFIPTLYHFPTNCEACMKPLWHMFKPPPALECRRCHIKCHKDHMDKKEEIIAPCKVYYDISTAKNLLLLANSTEEQQKWVSRLVKKIPKKPPAPDPFARSSPRTSMKIQQNQSIRRPSRQLAPNKPS",–,neither GFP-RhoAV14E40L nor GFP-RhoAN19 transfection shows no the enhancement of RCOKII Ser^1366 phosphorylation,the level of ROCK Ser^1366 phosphorylation in the GFP-RhoAV14 expression cells was enhanced
